{"source": "patent US20240294650A1", "about": "(Alector, published 2024)", "binders": {"B1": {"name": "MTK-207 (antibody, human IgG1, V domains shown)", "VH": "QVQLKESGPGLVAPSQSLSITCTVSGISLTSYGVSWVRQPPGKGLEWLGIIWGDGSTNYHSALISRLSISKDNSKSQVFLKLNSLQTDDTATYYCAKGRYGNYEDWYFDVWGTGTTVTVSS", "VL": "DIQMTQSPASLSASVGETVTITCRASGNIHNYLAWYQQKQGKSPQLLVYNAKTLAAGVPSRFSGSGSGTQYSLKINSLQPEDFGSYYCQHFWSIPLTFGAGTKLELK"}, "B2": {"name": "MTK-206 (antibody, human IgG1, V domains shown)", "VH": "QVQLQQSGAELARPGASVKMSCKASGYTFTSYTMHWVKQRPGQGLEWIGYINPSSGYIKNSQKFKDKATLTADKSSSTAYMQLSSLTSEDSAVYYCARTVYGYYGSSPDYWGQGTTLTVSS", "VL": "DIQMTQSPSSLSASLGERVSLTCRASQDIGSNLNWLQQEPDGTIKRLIYATSSLESGVPKRFSGSRSGSDYSLTISSLESEDFVDYYCLQYDSSPWTFGGGTKLEIK"}, "B3": {"name": "MTK-225 (antibody, human IgG1, V domains shown)", "VH": "EVQLQQSGPELVKPGASVKIFCKASGYTFTAYNMDWVKQSHGKSLEWIGDINPNNGGTIYNQKFKGKATLTVDKSSSTAYMELRSLTSEDTAVYYCARRRRYGNTYYWYFDVWGTGTTVTVSS", "VL": "DIQMTQSPASLSVSVGETVTITCRASENIYSSLAWYQQKQGKSPQLLVYAATNLADGVPSRFSGSGSGTQFYLKINGLQSEDFGSYYCQHFWGTSYTFGGGTKLEIK"}, "B4": {"name": "MTK-216 (antibody, human IgG1, V domains shown)", "VH": "EVQLVESGGGLVKPGGSLKLSCAASGFTFSDYGMHWVRQAPEKGLEWVAFISSGSTTIYYADTVKGRFTISRDNAKNTLILQMTSLRSEDTAIYYCTRGGFHLDYWGQGTTLTVSS", "VL": "SIMMTQSPSSLAVSAGEKVTMGCKSSQSVLYSANQQNYLAWYQQKPGQSLKLLIYWASTRESGVPDRFTGSGSGTDFTLTISSVQAEDLAVYYCHQYFSSWTFGGGTKLEIK"}, "B5": {"name": "MTK-202 (antibody, human IgG1, V domains shown)", "VH": "EVQLVESGGGLVKPGGSLKLSCAASGFTFSDFGMHWVRQVPEKGLEWVAFISGGSNTIYYTDTVKGRFTISRDNAKNTLFLQMTSLRSEDTAMYYCVRNGNSFAYWGQGTLVTVSA", "VL": "B4 VL with S1N, G22N, A33S, Q36K, L50P, S83N, V84I, V91I, S99F"}, "B6": {"name": "MTK-204 (antibody, human IgG1, V domains shown)", "VH": "B4 VH with F50Y, S55T, T56S, A61E, I80F, I93M, T97A, F101L, H102L, L103F", "VL": "B4 VL with S1N, G22S, A33S, Q36K, L50P, Y55Q, G74E, S82R"}, "B7": {"name": "MTK-215 (antibody, human IgG1, V domains shown)", "VH": "EVQLVESGGGLVKPGGSLKLSCAASGFIFSDYGMHWVRQAPEKGLEWVAYISSGSSTIYYGDTVKGRFTISRDNAKNTLFLQMTSLRSEDTAMYYCAKGGRYGAMDYWGHGTSVTVSS", "VL": "DIVLTQSPATLSVTPGDSVSLSCRASQSISNNLHWYQQKSHESPRLLIKNPSQSISGIPSRFGARGSGTDFTLIINSVETEDLGVYFCQQSNSWPFTFGSGTKLEIK"}, "B8": {"name": "MTK-221 (antibody, human IgG1, V domains shown)", "VH": "QVTLKESGPGMLQSSQTLSLTCSFSGFSLSTSGMGVSWIRQPSGKGLEWLAHIYWDDDKRYNTSLQSRLTISKDTSRNQVFLKITSVDTADTATYFCGRLGAYSAFPYYFDYWGQGTTLTVSS", "VL": "DIQMTQSPSSLSASLGGKVTITCKASQDIHKHIAWYQHKPGKGPRLLIHYTSTLQPGIPSRFSGSGSGRDYSFSISNLEPEDLATYYCLQYDNLWTFGGGTKLEIK"}, "B9": {"name": "MTK-231 (antibody, human IgG1, V domains shown)", "VH": "DVQLQESGPGLVKPSQSLSLTCSVTGYSITSGYYWNWIRQFPGNKLEWMGYISYDGTYNYHPSLKNRISITRDTSKNQFFLTLNSVTTEDTATFYCTRGGGYWGQGTSVTVSS", "VL": "DVVMTQTPLSLPVSLGDQASISCRSSQSLVHSDGNTYLHWYLQKPGQSPKLLIYKVSNRFSGVPDRFSGSGSGTDFTLKISRLEAEDLGIYFCSQTTHIPLTFGSGTKLEIK"}, "B10": {"name": "MTK-208 (antibody, human IgG1, V domains shown)", "VH": "QVQLQQPGAELVVPGASVRLSCKASGYTFINYWMHWVKQRPGQGLEWIGEIDPSDSYANYNQKFKDKSTLSLDKSSSTAYMQLSSLTSEDSAVYYCARCDYYGRLDYWGQGTTLTVSS", "VL": "QVVLTQSPAIMSASPGEKVTITCSASSSVSYMLWFQQKPGTSPKLWIYSTSNLASGVPARFSGSGSGTSYSLTISRLEAEDAATYYCQQRSSYPPITFGAGTKLELK"}}, "key": {"human MerTK": {"molecular_target": "T1, human MerTK (human, UniProt Q12866 21-999)", "T1 construct": "endogenous receptor on cells; also called human MerTK endogenously expressed on SK-MEL-5 cells; MerTK on human macrophages", "T1 sequence": "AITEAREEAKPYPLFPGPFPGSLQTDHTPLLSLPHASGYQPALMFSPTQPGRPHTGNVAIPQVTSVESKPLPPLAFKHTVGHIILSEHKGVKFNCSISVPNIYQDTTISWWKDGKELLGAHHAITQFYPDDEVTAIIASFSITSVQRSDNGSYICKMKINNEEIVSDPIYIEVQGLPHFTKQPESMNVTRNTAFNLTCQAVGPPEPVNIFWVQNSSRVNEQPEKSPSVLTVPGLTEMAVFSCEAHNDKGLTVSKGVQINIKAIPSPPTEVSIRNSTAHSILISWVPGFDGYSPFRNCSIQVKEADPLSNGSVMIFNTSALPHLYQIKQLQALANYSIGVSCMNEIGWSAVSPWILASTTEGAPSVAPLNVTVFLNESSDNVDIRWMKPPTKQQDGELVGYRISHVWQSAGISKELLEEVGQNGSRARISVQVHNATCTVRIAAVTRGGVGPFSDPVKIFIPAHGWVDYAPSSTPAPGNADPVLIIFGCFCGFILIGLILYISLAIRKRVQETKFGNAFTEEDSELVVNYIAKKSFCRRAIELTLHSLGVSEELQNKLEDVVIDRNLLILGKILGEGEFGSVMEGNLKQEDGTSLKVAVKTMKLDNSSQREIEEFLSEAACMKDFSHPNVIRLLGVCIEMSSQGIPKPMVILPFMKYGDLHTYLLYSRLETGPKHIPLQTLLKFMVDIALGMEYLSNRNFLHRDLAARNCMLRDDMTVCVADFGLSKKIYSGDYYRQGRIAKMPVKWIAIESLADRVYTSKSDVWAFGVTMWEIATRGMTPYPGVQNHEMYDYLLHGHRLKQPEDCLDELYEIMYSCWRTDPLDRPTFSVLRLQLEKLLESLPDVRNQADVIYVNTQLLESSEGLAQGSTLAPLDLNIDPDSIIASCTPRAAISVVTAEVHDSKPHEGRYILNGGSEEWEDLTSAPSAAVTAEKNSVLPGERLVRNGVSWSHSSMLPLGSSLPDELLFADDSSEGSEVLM", "experiment": "FACS, SK-MEL-5 cells, 10 ug/ml", "procedure": "To determine whether recombinant anti-human MerTK antibodies of the present disclosure bind to human MerTK endogenously expressed on SK-MEL-5 cells and CHO cells overexpressing mouse MerTK (CHO-muMerTK OE cells), as compared to A375 and parental CHO cells as negative controls, the following experiments were performed. SK-MEL-5 cells, A375 cells, CHO-muMerTK OE cells, and CHO parental cells were plated at 100,000 cells/well. Anti-MerTK antibodies were added to the cells at 10 μg/ml. After 60 minutes on ice, cells were washed and then stained with PE-conjugated goat anti-human IgG antibody (Southern Biotech Cat #2040-09, Birmingham, AL) in the presence of Fc block solution on ice for 30 minutes, and then washed twice with cold FACS buffer (2% FBS in PBS). Mouse anti-human MerTK-PE conjugated (Biolegend, Clone 590H11G1E3) or anti-mouse MerTK-PE conjugated (ThermoFisher, Clone DS5MMER) antibodies were used as positive controls. Stained cells were acquired on a BD FACS Canto II cytometer and the mean fluorescence intensity (MFI) was calculated with FlowJo."}, "[1]": {"molecular_target": "T2, recombinant human MerTK extracellular domain (human, UniProt Q12866 21-505)", "T2 construct": "also called human MerTK ECD; not shown: polyHis or TEVS/Thrombin/murine IgG2a-Fc tag", "T2 sequence": "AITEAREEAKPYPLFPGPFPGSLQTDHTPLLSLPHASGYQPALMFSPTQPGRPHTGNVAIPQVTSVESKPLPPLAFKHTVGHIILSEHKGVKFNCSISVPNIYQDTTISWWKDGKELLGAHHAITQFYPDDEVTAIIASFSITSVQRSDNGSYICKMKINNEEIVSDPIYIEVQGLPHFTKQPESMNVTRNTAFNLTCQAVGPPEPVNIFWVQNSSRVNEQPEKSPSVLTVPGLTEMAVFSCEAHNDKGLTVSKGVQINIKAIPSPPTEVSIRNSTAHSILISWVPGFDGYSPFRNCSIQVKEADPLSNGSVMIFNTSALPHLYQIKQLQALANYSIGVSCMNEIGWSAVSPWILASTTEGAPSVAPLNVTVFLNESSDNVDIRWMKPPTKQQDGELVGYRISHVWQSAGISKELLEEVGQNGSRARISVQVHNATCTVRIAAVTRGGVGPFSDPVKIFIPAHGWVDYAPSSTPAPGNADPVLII", "experiment": "SPR Carterra LSA, Ab immobilised", "procedure": "Binding kinetics of anti-MerTK IgG1 antibodies of the present disclosure to human, cyno, and murine MerTK were evaluated using a Carterra LSA instrument (Carterra, Salt Lake City, UT). […] A HC200M sensor chip (Carterra) was activated using the single channel flow cell with a 7-minute injection of a 1:1:1 mixture of 100 mM MES pH 5.5, 100 mM sulfo-NHS, 400 mM EDC (all reconstituted in MES pH 5.5; 100 μl of each mixed in vial immediately before running assay). After switching to the multi-channel array flow cell, the antibodies were injected over the activated chip in three 96-spot arrays for 10 minutes each. The remaining unconjugated active groups on the chip were then blocked by injecting 1M Ethanolamine pH 8.5 (Carterra) for 7 minutes using the single channel flow cell. The resulting sensor chip contained three spots for each antibody, at three different densities. Two independent experiments were performed as follows, resulting in an N of between one and six determinations for each antibody. Spots that yielded less than 25 RU of analyte binding were excluded from further analysis.\nAfter priming with running buffer (HBS-TE, Carterra) with 0.5 mg/ml BSA (Sigma), the immobilized anti-MerTK antibodies were tested for their ability to bind to several forms of recombinant MerTK extracellular domain, including human, cynomolgus, and mouse orthologs as described above. Estimates of affinity were generated by injecting each analyte over the entire antibody array using the single channel flow cell. MerTK analytes were diluted with running buffer, in a series of six, three-fold serial dilutions starting from 1 μM for human and cynomolgus MerTK, and 600 nM for mouse MerTK. Analytes were injected for 5 minutes, and dissociation was followed for 10 minutes. After each analyte injection, antibodies were regenerated with either Protein A/G Elution Buffer (Thermo) with 1M NaCl (Teknova), or with 10 mM Glycine pH 2.5. Three buffer blanks were run between each series (one species per series). Data were processed and analyzed using NextGenKIT high-throughput kinetics analysis software (Carterra)."}}, "note": "Positions count from the first letter of the chain named."}
{"binder": "B1", "values": [{"measurement": "MFI", "setting": "human MerTK", "value": 1190, "unit": "MFI"}, {"measurement": "Kd", "setting": "[1]", "value": 52, "unit": "nM"}]}
{"binder": "B2", "values": [{"measurement": "MFI", "setting": "human MerTK", "value": 3270, "unit": "MFI"}, {"measurement": "Kd", "setting": "[1]", "value": 150, "unit": "nM"}]}
{"binder": "B3", "values": [{"measurement": "MFI", "setting": "human MerTK", "value": 40200, "unit": "MFI"}, {"measurement": "Kd", "setting": "[1]", "value": 52, "unit": "nM"}]}
{"binder": "B4", "values": [{"measurement": "MFI", "setting": "human MerTK", "value": 43300, "unit": "MFI"}, {"measurement": "Kd", "setting": "[1]", "value": 41, "unit": "nM"}]}
{"binder": "B5", "values": [{"measurement": "MFI", "setting": "human MerTK", "value": 46100, "unit": "MFI"}, {"measurement": "Kd", "setting": "[1]", "value": 33, "unit": "nM"}]}
{"binder": "B6", "values": [{"measurement": "MFI", "setting": "human MerTK", "value": 33800, "unit": "MFI"}, {"measurement": "Kd", "setting": "[1]", "value": 240, "unit": "nM"}]}
{"binder": "B7", "values": [{"measurement": "MFI", "setting": "human MerTK", "value": 19000, "unit": "MFI"}, {"measurement": "Kd", "setting": "[1]", "value": 370, "unit": "nM"}]}
{"binder": "B8", "values": [{"measurement": "MFI", "setting": "human MerTK", "value": 42800, "unit": "MFI"}, {"measurement": "Kd", "setting": "[1]", "value": 29, "unit": "nM"}]}
{"binder": "B9", "values": [{"measurement": "MFI", "setting": "human MerTK", "value": 39000, "unit": "MFI"}, {"measurement": "Kd", "setting": "[1]", "value": 26, "unit": "nM"}]}
{"binder": "B10", "values": [{"measurement": "MFI", "setting": "human MerTK", "value": 14100, "unit": "MFI"}, {"measurement": "Kd", "setting": "[1]", "value": 19, "unit": "nM"}]}
